Molecular target: FtsH with a C-terminal FLAG epitope, chromosomally encoded (E. coli, UniProt P0AAI3 1-644)
Assay: cryo-EM structure

Chain of FtsH with a C-terminal FLAG epitope, chromosomally encoded (P0AAI3 whole entry): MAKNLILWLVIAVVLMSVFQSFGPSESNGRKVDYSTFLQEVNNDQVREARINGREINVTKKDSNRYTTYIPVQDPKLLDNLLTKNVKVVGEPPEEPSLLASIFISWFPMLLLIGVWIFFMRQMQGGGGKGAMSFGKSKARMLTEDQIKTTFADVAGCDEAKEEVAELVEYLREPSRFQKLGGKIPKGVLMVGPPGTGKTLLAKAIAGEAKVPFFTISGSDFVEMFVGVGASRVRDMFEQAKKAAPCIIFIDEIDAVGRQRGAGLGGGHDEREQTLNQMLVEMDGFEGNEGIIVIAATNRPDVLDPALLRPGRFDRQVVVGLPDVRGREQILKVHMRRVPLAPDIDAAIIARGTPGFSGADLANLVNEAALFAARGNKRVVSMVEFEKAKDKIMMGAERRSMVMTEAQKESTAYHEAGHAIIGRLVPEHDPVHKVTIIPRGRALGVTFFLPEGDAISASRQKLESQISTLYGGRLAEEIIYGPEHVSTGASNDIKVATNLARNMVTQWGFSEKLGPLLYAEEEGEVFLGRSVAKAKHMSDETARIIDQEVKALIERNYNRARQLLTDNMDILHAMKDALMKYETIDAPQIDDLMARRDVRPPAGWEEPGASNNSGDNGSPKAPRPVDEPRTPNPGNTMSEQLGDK

| binding result | Binder |
| --- | --- |
| binds | HflC, endogenous (natural protein, E. coli (endogenous in BL21(DE3)), UniProt P0ABC3 1-334, looked up) MRKSVIAIIIIVLVVLYMSVFVVKEGERGITLRFGKVLRDDDNKPLVYEPGLHFKIPFIETVKMLDARIQTMDNQADRFVTKEKKDLIVDSYIKWRISDFSRYYLATGGGDISQAEVLLKRKFSDRLRSEIGRLDVKDIVTDSRGRLTLEVRDALNSGSAGTEDEVTTPAADNAIAEAAERVTAETKGKVPVINPNSMAALGIEVVDVRIKQINLPTEVSEAIYNRMRAEREAVARRHRSQGQEEAEKLRATADYEVTRTLAEAERQGRIMRGEGDAEAAKLFADAFSKDPDFYAFIRSLRAYENSFSGNQDVMVMSPDSDFFRYMKTPTSATR |
| binds | HflK, endogenous (natural protein, E. coli (endogenous in BL21(DE3)), UniProt P0ABC7 1-419, looked up) MAWNQPGNNGQDRDPWGSSKPGGNSEGNGNKGGRDQGPPDLDDIFRKLSKKLGGLGGGKGTGSGGGSSSQGPRPQLGGRVVTIAAAAIVIIWAASGFYTIKEAERGVVTRFGKFSHLVEPGLNWKPTFIDEVKPVNVEAVRELAASGVMLTSDENVVRVEMNVQYRVTNPEKYLYSVTSPDDSLRQATDSALRGVIGKYTMDRILTEGRTVIRSDTQRELEETIRPYDMGITLLDVNFQAARPPEEVKAAFDDAIAARENEQQYIREAEAYTNEVQPRANGQAQRILEEARAYKAQTILEAQGEVARFAKLLPEYKAAPEITRERLYIETMEKVLGNTRKVLVNDKGGNLMVLPLDQMLKGGNAPAAKSDNGASNLLRLPPASSSTTSGASNTSSTSQGDIMDQRRANAQRNDYQRQGE |

Source: publication PMC11326279 (bioRxiv, 2024)
